From PMC6406002, “Comparison of the functional properties of trimeric and monomeric CaiT of Escherichia coli” (Scientific Reports, 2019)

Legend:
[1] = tested on: T1, C[N+](C)(C)C[C@H](O)CC(=O)O; assay: purified protein; assay type: biochemical, Escherichia coli; details: labelled compound, proteoliposomes preloaded with 10 mM L-carnitine, potassium phosphate pH 7.5, 25 °C
T1 construct: full-length with C-terminal 6His tag (pET21a), expressed in E. coli JW0039 (delta caiT), Ni-NTA purified; homotrimer (D288A and D288R mostly monomeric); DDM-solubilized or in proteoliposomes

CaiT-M295E (E. coli) = CaiT-M295E (E. coli) (UniProt P31553); assay: native gel or EMSA; blue native PAGE, 4–16.5% gradient gel, 5 µg purified protein per lane, in detergent solution
CaiT-R299A (E. coli) = CaiT-R299A (E. coli) (UniProt P31553); assay: as above

Substance CaiT (Escherichia coli K-12) has a Km [1] of 45.3 ± 6.9 µM and a Vmax [1] of 2.13 µmol/min/mg.

Substance “CaiT-M295E (from UniProt P31553 1-504) (natural protein)” has a percent of the protein in the monomeric state (CaiT-M295E (E. coli)) of over 80%.

CaiT (Escherichia coli K-12; D288A) gave a Km ([1]; mostly monomeric variant) of 114.1 ± 17.9 µM and a Vmax ([1]; mostly monomeric variant) of 1.86 µmol/min/mg.

“CaiT-R299A (from UniProt P31553 1-504) (natural protein)” was tested, and the percent of the protein in the monomeric state (CaiT-R299A (E. coli)) was over 80%.
